Assay results from a protein production outcome set (Wang et al. 2014).

Test: label from the status in PepcDB records

| Sequence | protein production |
| --- | --- |
| MEQTEHIPPPGLVAQLRERSLLQTGDRFETLYGGRTNRVWRLHGPADDLVVKLYRRDFDNPLFGNDAQLEALCLDRLEGTGLAPQLRASGALGQEAWVVYDHAPGAPWRTDPAIAARMLANLHRRALDIPAPAGCNGSAAIRTHAEAILSRCDQPDRELLLKARPHTATIAPGPACLIHGDPVAGNLLVSGDQAILIDWQCPAIGDPAEDLAMFLSPAMQQVYRGAPLTAAEEQQFLSAYDNAGTVARYLSLKPWFHWRMAAYCRWRARNGAPDYAPAFELEHAALAAC | failed |
| MEQVIAQVIKRQQTEERPPDVLSQQTTKYEKRNSASLRKRKNSSKLYLKTDQNWMALREKLASNSIHDKGKYRQKRESNVTCFKSGVESGIQNSSVRSRETQVTFCDGTVPSQGLELANSKSTAEISSRNEIPRLTKVVALDCEFVGVGKLGKEHSLARVSIVNFKGEVLYDKYVLNDKEPVVDYRTSVSGIRPEHLRSSDAVSFEQAQRDVYSIIRNRILVGHAIHHDMHALLLSHPRKLIRDTSKWRGLRSHHLSRKTPSLRKLAQEILGIRIQDGEHDSVEDARATLMIYKRFAKEWEMELQTKKVKLARKKHR | failed |
| MEQVSKSHENKAEEQTEGVGLLERLFKLSQHKTTVKTELMAGLTTFVTMSYIMFLNPIIMSKTGMPFDGLFLATCLGAAIATILMGMYANWPVGLAPGMGLNAFFTFSVVGSMGYSWQIALGAVFLSGVIFVLMSVTRLREWMLDSIPMSLRLAMTAGVGLFLGFIGLRFTGIVVANPDNVVALADMTHFGFGQFGPEAPALGFLSFLLIAILSYRKVFGAVLIGIAVTTFIAFAMTWVLPTDFFVVAEAAKSFAPASGFVAYKGLLAIPEFSALEPILWKADIVGAFEVALIPVIVTFLFVNIFDTAGTLMGVAERANLQDENGKIEGLSKSLKADSISSVIGTAFGCPPVTSYVESAAGVAAGGRTGLTAVTIGLLFAAGVFFLPLAQMLPGFAVDGALIYVAMLMMSSLRGLDWDDLTEYAPAVCTTVMMAFTFSIANGIAFGFITYTVLKVGAGKSSQVSNGVWALTVLFVAKFIFLN | failed |
| MERAFMLNGLLVNLVSGLIVMFISAILYYRKPERKWLLIIIVIGMMSVVTAGIRMLVA | failed |
| MEREEIIERFLKFFREYAEEGEEPLYMGKIKDLLTITPKRSIVINWMHLNSYDPELAEEVIENPEECILAAEDAIQIILKEDFLREDVPKIHARFHNLPKTLMVKEVGAEHINKLIQVEGVVTRVTEIKPFVSVAVFVCKDCGHEMVVPQKPYEGFVAVKKCEQCGSKNVQLDVEKSKFVNFQMFRIQDRPESLRGGQMPRFIDGILLDDIVDTAMPGDRVIVVGILRVIQEKREKVPTFKKVIEVNHIEPISKELEELEISPEDEQKIRELAKRKDIVSAIVDSIAPAIYGYKEVKKGIALALFGGVSRTLPDGTRLRGDIHVLLVGDPGVAKCVDYDTEVLLGDGRKRKIGEIVEEAIKKAEKEGKLGRVDDGFYAPINLELYALDVRTLKVRKVKADIAWKRTTPEKMLRIRTKRGREIRVTPTHPFFTLEEGRIKTKKAYELKVGEKIATPREEAPEAEIFWDEVVEIEEYKPNNSWVYDLQVPEHHNFIANGIFVHNSQLLRYVANLAPRAIYTSGKSSSAAGLCVAPDTLINTDNGRVEIGKFVEEWMKEVGEISEEGISYAPCFRKVETFKDGKIVESPIRRVWKLRAPKKLVRIKTENGRSIALTRETKLLTINDGELSWVEAGEVKVGTYVGTVKSEKDVIPGAGKTIRDVSKLYNMEMEVKDYLTREEVRKAIEKLEEIMNPMNIKIPGVQESYEELLRKLETTNDERVRNETLILLSDVSDAHELAKEKIEKIKEIVNSEVHWEKVTEVGEVDGVEYVYDLTVEGSHNFVANGFIVHNTAAVVRDEFTGGWVLEAGALVLADGGYALIDELDKMSDRDRSVIHEALEQQTISLSKAGITATLNARTTVIAAANPKHGRFNRMKRVSEQIDLPPTLLSRFDLIFVLMDEPDEKVDSEIARHILKVRRGESEVVTPKIPHELLRKYIAYARKNIHPVISEEAMEEIEKYYVKMRRSAKKSSGDEIKPIPITARQLEALIRLSEAHARMRLSPIVTREDAREAIKLMEYTLKQIAVDEAGQLDVTILEVGQSARKLSKVERILDIVEKLERTSEKGAKIDDILEEAAKFGIEKSEAREILEKLLEKGQIYMPENGYYKTV | failed |
| MERIAMNPLMQQAIQFANDHETAWDRSVRGNFGVHLDDPPPWNRLLGPVHDRGPVSGVVVVDGQTLASWGEPERADLTFSVAKLYLSILAGVAHDRGLLPDVDEPVGRRVPGIGFDAGRNARITWRHLLQQTSEWEGERFGVPDQADRYRAVAFGIPPDGRKGDARPLQEPGTYWEYNDVRINQLSYALLHLFRRPLPEVFREAVTRPLGASEDWQWVGYDNAWVDIDGVRMPSVPGGTHWGGGMSISARDQALIGRMLLDEGRAADGRQVLSPAWIQAMRTPCDIAPYYGYLIWLNHERKVFPSVPASSFFGIGAGSSFTWVEPERRMVVIVRWLDAAYADALFGRILAAVDAHRAGLEHHHHHH | failed |
| MERIRWLYGFLACILIAILLAPLQIMAQGEFRTSDQPLVYYIPVEQEVERGLEAFLQRSLDSAVEEGADHIVLEINTPGGRVDAAGNMARALRETDIPITAYVIDQALSAGAYIALNADEIVMAPGSTMGSAAVIDSAGNAADEKAQSYWLAEMRNAAEYNDRDPKYALAMADRSIEIPELDISNEELLTLTASQALEVNYAEAIASNRAELLEHLQIDNAFEQEMEVSFAEKLARFVTNPLIIPILLSIGSLGLVLELYSPGFGVPGIMGISALLLFFFGHLIAGFAGYEAMILFIAGFLLILIEVFMPGFGLFGILGIAGMIGGMLLASFSTAWMLVSLGISAVVTTVVAIITFRYFGSRGPWKKMILTESTSSEKGYITNETRQELVGLIGQSLTPLRPSGSGLFGEERLDVVSEGGYIEQGRKIKVVSTSGSRIVVRETDE | failed |
| MERKKITFDSFIRGSICCALIVGLLILFKRLSGVLLPFFVAWLIAYMIYPLVKFFQYKLRFKSRIISIFCALFSITIVGISLFYLLVPPMLAEMGRMNDLLVTYLTNGAYSSGTVPPTLSEFIHKHIDLQALNRILSEENIMNTIKETVPKLWALVAESINILFSVFASFIILLYVVFILLDYESIAEGWLHLLPGKYRTFASNLVNDIQDGMNRYFRGQAFVAFCVGILFSIGFLIIDFPMAIALGLFIGALNMVPYLQIIGFLPTIVLAILKAADTGENFWVILAGALIVFIVVQAIQDGFLVPRIMGKITGLNPAIILLSLSIWGSLLGMLGMIIALPLTTLMLSYYQRFIINKEKIKYDRHEVTDNQSAEENTKK | failed |
| MERLTSPPRLMIVSDLDETMVDHHKDPENLALLRFNSLWEDAYRHDSLLVFSTGRAQTMYKKLRKEKPLLTPDVIITSVGTEIAYGNSMVPDDNWVEILNKKWDRGIVQEETSKFPELTLQGETEQRPHKLSFNIDKSKVKAVTKELSPRLEKRGVDVKFIFSGGNAFDVLAKGGGKGQALAYLLKKLKTEGKLPINTLACGDSGNDTELFTIPNVYGVMVSNAQEELLEWYAENAKDNANIIHASERCAGGITQAIGHFKLGPNLSPRDVSDFLECKADNVNPGHEVVKFFLFYERWRRGEVENCTTYTSSLKASCHPSGVFVHPSGAEKSLRDTIDELGKYYGDKKGKKFRVWTDQVLATDTTPGTWIVKLDKWEQTGDERKCCTTTVKFTSKEGEGFVWEHVQQIWSEETEIKDDSNWII | failed |
| MERNVTLDFVRGVAILGILLLNISAFGLPKAAYLNPAWYDAITPQDAWTWAFLDLIGQVKFLTLFALLFGAGLQMLLPRGRRWIQSRLTLLVLLGFIHGLLFWDGDILLAYGLVGLGVLLLLGLISDSQTSRAWTPDASAILYEKYWKLHGGVEAISNRADGVGNSLLALGAQYGWQLAGMMLIGAALMRSGWLKGQFSLRHYRRTGFVLVAIGVTINLPAIALQWQLDWAYRWCAFLLQMPRELSAPFQAIGYASLFYGFWPQLSRFKLVLAIACVGRMALTNYLLQTLICTTLFYHLGLFMHFDRLELLAFVIPVWLANILFSVIWLRYFRQGPVEWLWRQLTLRAAGPAISKTSR | failed |
| MERPLESYKKEAAHAAIAYVQDGMVVGLGTGSTARYAVLELARRLREGELKGVVGVPTSRATEELAKREGIPLVDLPPEGVDLAIDGADEIAPGLALIKGMGGALLREKIVERVAKEFIVIADHTKKVPVLGRGPVPVEIVPFGYRATLKAIADLGGEPELRMDGDEFYFTDGGHLIADCRFGPIGDPLGLHRALLEIPGVVETGLFVGMATRALVAGPFGVEELLP | not failed |
| MERQDDPDAIQRLLVPTDLSASALRAFRHAVALARLYDAAIDVLHVIESVPYVALTPTDRLSLGATTLLERRGRRRLRAFLQEGEAAGVQVQSHIMRGAAADQISRFANQGDVDLMVLSAHGSDAEEGPLGPVGTRVLGRVTRPLFLVRASGPSLLGPPDDAA | failed |
| MERSEEEIENLWKLQSEVKQRSESVKSIITELEIERGTLKVRALKLKEDSDVLTTWVEMNYLKLTSMDMGRIEEMFEIESEVEGLAGDDAIEDVLRVLEEAAERGELEIGSYLKQVRVLAREQFFLKHLSSFKTQNFHI | failed |
| MERVQRLRLTFGKTGEMTLLSHLDLLRLFERAVRRAHLPIAFSGGFHPSPRISTASALPLGVTSYGEIVDLEFYREVDAQTVLEQLRQQLPQEIPLYGCEVVPLSEPAASQALRAATYELLIRTPEPLERETWEQWLETLRATPEILYELTTKSGKTLEHHHHHH | failed |
| MESEKKIAHEIGGVKNDALRFGLHGVKSNIIGSHPLESSYESEKKSKEALKRTVIAHAYGTALPLKMDMDRQILSRFQRPPGPIPSSMLGLEVYTGAVDDFGFEDYLNDPRDSETFKPVDFHHGMEVRLGISKGPIYPSFM | failed |
| MESFNTFVRQYNDQHAEAIAKGELEALAESSSAFIEKASGIKSRFVMNKEGILDPQRMVPYLPERSNDEWSILCEMAVAAAREALQRAGRSAADIDGVIVACSNLQRAYPAIAVEVQAALGIQGYGYDMNVACSSATFGIQAATTAIQTGQARAILMVNPEICTGHLNFRDRDSHFIFGDACTAVIVERADLAVSKHQFDIVSTRLLTQFSNNIRNNFGFLNRADESGIGKRDKLFVQEGRKVFKDVCPMVAELIGEHLAANEIQVAEVKRFWLHQANLNMNLLITRKLLGRDAEAHEAPVILDSYANTSSAGSVIALHKHQDDLPSGAIGVLSSFGAGYSIGSVILRKH | failed |
| MESGKREQVELMFNNISPKYDLLNRVLSLGIDKIWRKQALNLLKQDKPAHILDVATGTADLAIEAATRLKPTSVVGIDIAEDMLQIGRGKIAKKNLDKIIRLEKGDSEKINFPDNTFDAVIVSFGVRNFEHLEIGLAEIHRVLKPAGSIMVLEFSKPQNAPFKQVYQFYFKNILPTVGKLISKDSAAYTYLPDSVNAFPDGKAFCSILEKTGFTIKHYKPYTFGVCTAYVGKLEHHHHHH | failed |
| MESSFSFGVILAVLASLIIATNTLVAVAVLLLIHKNDGVSLCFTLNLAVADTLIGVAISGLLTDQLSSPSRPTQKTLCSLRMAFVTSSAAASVLTVMLITFDRYLAIKQPFRYLKIMSGFVAGACIAGLWLVSYLIGFLPLGIPMFQQTAYKGQCSFFAVFHPHFVLTLSCVGFFPAMLLFVFFYCDMLKIASMHSQQIRKMEHAGAMAGGYRSPRTPSDFKALRTVSVLIGSFALSWTPFLITGIVQVACQECHLYLVLERYLWLLGVGNSLLNPLIYAYWQKEVRLQLYHMALGVKKVLTSFLLFLSARNCGPERPRESSCHIVTISSSEFDG | failed |
| MESWLFLLLIALIAFVAKNQSLLIASVVVLALKALPNSAKIMSWLSDKGINLGVTIISITILVPIATGQIGLKDLIQSFKTPMGWLGILCGILVAVLSSKGVGLINQSPEITVALVFGTILGVVFLKGIAAGPIIASGMMYVIITTFQAFQH | failed |
| MESYSQRQDHELQALEAIYGSDFQDLRPDARGRVREPPEINLVLYPQGLAGEEVYVQVELRVKCPPTYPDVVPEIDLKNAKGLSNESVNLLKSHLEELAKKQCGEVMIFELAHHVQSFLSEHNK | not failed |
